Values of other authors, collected in article PMC7677405.

Biological target: insulin receptor (Homo sapiens) (UniProt P06213)
UniProt P06213, sequence (P06213 763-1382): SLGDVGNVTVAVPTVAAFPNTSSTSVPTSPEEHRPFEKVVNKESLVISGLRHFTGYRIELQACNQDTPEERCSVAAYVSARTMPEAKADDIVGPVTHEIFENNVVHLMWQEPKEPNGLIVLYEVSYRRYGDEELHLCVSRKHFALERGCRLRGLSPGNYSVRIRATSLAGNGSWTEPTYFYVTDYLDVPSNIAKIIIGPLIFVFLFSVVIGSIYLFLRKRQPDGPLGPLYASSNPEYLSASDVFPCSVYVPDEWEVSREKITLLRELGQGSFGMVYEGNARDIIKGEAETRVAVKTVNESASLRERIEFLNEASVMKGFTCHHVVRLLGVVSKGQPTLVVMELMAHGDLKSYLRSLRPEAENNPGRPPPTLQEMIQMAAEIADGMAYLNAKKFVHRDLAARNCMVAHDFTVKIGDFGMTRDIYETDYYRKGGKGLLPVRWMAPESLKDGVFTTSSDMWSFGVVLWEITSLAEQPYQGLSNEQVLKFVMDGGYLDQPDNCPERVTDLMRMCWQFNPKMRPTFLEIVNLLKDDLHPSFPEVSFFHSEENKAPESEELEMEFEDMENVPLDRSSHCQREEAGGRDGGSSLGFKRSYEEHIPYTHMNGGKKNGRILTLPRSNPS

insulin, sequence (P01308 90-110): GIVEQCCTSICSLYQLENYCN

Kd: 0.028 µM
Substance: insulin (from UniProt P01308)
